{
  "source": "patent US20090137467A1",
  "key": {"[1]": {"biological_target": "[Asn516]β-RNAP (Escherichia coli)"}, "[2]": {"biological_target": "Escherichia coli RNA polymerase (Escherichia coli) (UniProt P0A8T7)"}, "[3]": {"biological_target": "[Asn516]β-RNAP (Escherichia coli)", "remark": "listed apart in the source"}},
  "note": "Read-outs that look alike come from different tables or passages of the source.",
  "data": [
    {"substance": "{rifamycin SV}-{CH2C(O)NH(CH2)8NHC(O)CH2S(CH2)3C(NH2+)}-{[Lys5]MccJ25} (from UniProt Q9X2V7) (peptide)", "values": [
      {"measurement": "inhibition of transcription (IC50)", "setting": "[1]", "value": 100, "unit": "µM"}
    ]},
    {"substance": "{rifamycin SV}-{CH2C(O)NH(CH2)12NHC(O)CH2S(CH2)3C(NH2+)}-{[Lys5]microcin J25} (from UniProt Q9X2V7) (peptide)", "values": [
      {"measurement": "inhibition of transcription (IC50)", "setting": "[1]", "value": 48, "unit": "µM"},
      {"measurement": "inhibition of RNAP (IC50)", "setting": "[2]", "value": 0.002, "unit": "µM"}
    ]},
    {"substance": "{rifamycin SV}-{CH2C(O)NH(CH2)10NHC(O)(CH2)2(C2N3)(CH2)4C(O)}-{[Lys5]microcin J25} (from UniProt Q9X2V7) (peptide)", "values": [
      {"measurement": "inhibition of transcription (IC50)", "setting": "[3]", "value": 220, "unit": "µM"}
    ]},
    {"substance": "{rifamycin SV}-{CH2C(O)NH(CH2)6NHC(O)CH2S(CH2)3C(NH2+)}-{[Lys5]MccJ25} (from UniProt Q9X2V7) (peptide)", "values": [
      {"measurement": "inhibition of transcription (IC50)", "setting": "[1]", "value": 130, "unit": "µM"}
    ]},
    {"substance": "{rifamycin SV}-{CH2C(O)NH(CH2)10NHC(O)CH2S(CH2)3C(NH2+)}-{[Lys5]MccJ25} (from UniProt Q9X2V7) (peptide)", "values": [
      {"measurement": "inhibition of transcription (IC50)", "setting": "[1]", "value": 95, "unit": "µM"}
    ]}
  ]
}
